Source: article PMC11527279, “The SARS-CoV-2 ORF6 protein inhibits nuclear export of mRNA and spliceosomal U snRNA” (PLOS ONE, 2024)

Biological target: T1, GST-T7-ORF6-His (SARS-CoV-2, UniProt P0DTC6 1-61)
T1 construct: ORF6 protein of SARS-CoV-2, full-length recombinant protein; pGEX-T7-ORF6-His; T7 tag lies between GST and ORF6; also called GST-ORF6; not shown: GST, N-terminal, kept; T7, N-terminal, kept; His6, C-terminal, kept
T1 sequence: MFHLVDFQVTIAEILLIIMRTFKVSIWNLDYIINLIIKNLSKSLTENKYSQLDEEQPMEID
Conditions: both partners purified

B1: T7-ORF6-His (natural protein)
chain: T1 sequence
notes: ORF6 protein of SARS-CoV-2, full-length recombinant protein; From pGEX-T7-ORF6-His (pGEX-6p-1 backbone); also called SARS-CoV-2 ORF6 protein; not shown: GST, N-terminal, cleaved; T7, N-terminal, kept; His6, C-terminal, kept
  binding result: binds
